Consider 15 molecules from patent US20230257470A1 (published 2023).

The target in one test is T1, human FcγRIa (human, UniProt P12314 16-292, limits assumed).
T1 construct: Soluble analyte in SPR; also called hFcgRIa; FcgRIa
The experiment in a line: SPR (Biacore), antibody captured by Protein L, FcγR as analyte, pH 7.4, 25 C. (In SPR one partner is held on a chip, and binding of the other changes the refractive index at the surface.)

The target of test [1] is T2, human FcγRIIa(R) (allotype R131) (human, UniProt P12318 36-217).
T2 construct: Soluble analyte in SPR; also called hFcgRIIa(R); FcgRIIaR
T2 chain: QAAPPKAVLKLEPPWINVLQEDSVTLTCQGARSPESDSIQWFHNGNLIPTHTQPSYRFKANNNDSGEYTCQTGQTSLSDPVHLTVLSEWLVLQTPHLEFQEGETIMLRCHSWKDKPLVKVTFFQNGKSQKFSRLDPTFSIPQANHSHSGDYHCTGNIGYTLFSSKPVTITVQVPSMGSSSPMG
The test is described as above.
Description: (§1) Binding activity between the antibodies and human FcγRIa, FcγRIIa(H), FcγRIIa(R), FcγRIIb and FcγRIIIa(F) (hereinafter referred to as human FcγRs) was evaluated using the BIACORE™ T100 or T200 surface plasmon resonance system (GE Healthcare). The antibodies being tested were captured by Protein L (ACTIGEN® protein (Alltech)) that was immobilized in suitable amounts on the CM4 Sensor Chip (GE Healthcare) by amine coupling. Next, the diluted human FcγRs and a running buffer used as a blank were injected to allow interaction with the antibodies captured on the sensor chip. A buffer consisting of 20 mmol/L N-(2-acetamido)-2-aminoethanesulfonic acid (ACES), 150 mmol/L NaCl and 0.05% (w/v) polysorbate 20 (Tween 20®) (pH 7.4) was used for the running buffer, and this buffer was also used to dilute the human FcγRs. 10 mmol/L glycine-HCl (pH 1.5) was used to regenerate the sensor chip. All measurements were carried out at 25° C.
(§2) Binding activity to human FcγRs can be represented by the relative binding activity to human FcγRs. Antibody was captured by Protein L, and the amount of change in a sensorgram before and after the antibody was captured was defined as X1. Next, human FcγRs were allowed to interact with the antibody, and the value obtained by subtracting binding activity of human FcγRs represented as the amount of change in a sensorgram before and after allowing the running buffer to interact with antibody captured by Protein L (ΔA2) from the value obtained by multiplying by 1500 the value obtained by dividing the binding activity of human FcγRs represented as the amount of change in a sensorgram before and after that interaction (ΔA1) by the captured amount (X) of each antibody, was divided by the captured amount of each antibody (X) followed by multiplying by 1500 to obtain the binding activity of the human FcγRs (Y) (Equation 2).

Test [2] addresses T3, human FcγRIIa(H) (allotype H131) (human, UniProt P12318 36-217).
T3 construct: Soluble analyte in SPR; also called hFcgRIIa(H); FcgRIIaH
T3 sequence: T2 chain with R133H
Described as above.
Description: as §1, §2

Test [3] concerns the target T4, human FcγRIIb (human, UniProt P31994 43-217, limits assumed).
T4 construct: Soluble analyte in SPR; also called hFcgRIIb; FcgRIIb
T4 sequence: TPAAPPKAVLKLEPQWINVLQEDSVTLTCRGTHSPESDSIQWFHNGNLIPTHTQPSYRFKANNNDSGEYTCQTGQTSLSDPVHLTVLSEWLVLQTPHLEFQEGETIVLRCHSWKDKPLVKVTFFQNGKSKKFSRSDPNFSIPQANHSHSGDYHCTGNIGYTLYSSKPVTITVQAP
The description is as above.
Description: as §1, §2

Test [4] deals with T5, human FcγRIIIa(F) (allotype F158) (human, UniProt P08637 17-208, limits assumed).
T5 construct: also called hFcgRIIIa(F); FcgRIIIaF
The test is described as above.
Description: as §1, §2

Test [5] concerns the target T6, human FcγRIIIa(V) (allotype V158) (human, UniProt P08637 17-208, limits assumed).
T6 construct: also called hFcgRIIIa(V)
The test is described as above.
Description: as §1, §2

In test [6] the target is T7, human FcγRIIb (human, UniProt P31994 43-217).
T7 construct: also called FcγIIB
T7 sequence: T4 sequence
In words: SPR (Biacore), captured antibody, FcγR as analyte; binding amount divided by that of IL6R-F652/IL6R-L, times 100.

For the next test, the target named is T8, human FcγRIIa type R (human, UniProt P12318 36-217).
T8 construct: also called FcγRIIaR; Fc γ RIIaR
T8 chain: T2 chain
The description is as above.

Substitutions are numbered along the chain they refer to. Names may count otherwise.
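Wherever BINDING AMOUNT (RU) is given: Buffer-blank-subtracted FcγR response, normalized to the captured antibody level and scaled to 1500 RU of captured antibody, CM4 chip, ACES-NaCl running buffer with polysorbate 20.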

T6 sequence (P08637 other isoform, or with tags, fused parts or gaps limits assumed): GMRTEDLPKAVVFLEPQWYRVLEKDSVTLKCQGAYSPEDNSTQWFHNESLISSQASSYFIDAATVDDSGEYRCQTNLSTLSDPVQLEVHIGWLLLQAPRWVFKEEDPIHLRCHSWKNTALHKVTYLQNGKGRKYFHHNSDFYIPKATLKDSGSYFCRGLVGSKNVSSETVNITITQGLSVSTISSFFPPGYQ
T5 sequence (P08637 other isoform, or with tags, fused parts or gaps limits assumed): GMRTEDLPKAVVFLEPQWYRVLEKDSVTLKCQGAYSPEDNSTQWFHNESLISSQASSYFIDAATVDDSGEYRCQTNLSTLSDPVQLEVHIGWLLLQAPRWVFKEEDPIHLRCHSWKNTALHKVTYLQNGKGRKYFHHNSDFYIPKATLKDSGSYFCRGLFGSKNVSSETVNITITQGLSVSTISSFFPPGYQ
T1 sequence (P12314 16-292 limits assumed): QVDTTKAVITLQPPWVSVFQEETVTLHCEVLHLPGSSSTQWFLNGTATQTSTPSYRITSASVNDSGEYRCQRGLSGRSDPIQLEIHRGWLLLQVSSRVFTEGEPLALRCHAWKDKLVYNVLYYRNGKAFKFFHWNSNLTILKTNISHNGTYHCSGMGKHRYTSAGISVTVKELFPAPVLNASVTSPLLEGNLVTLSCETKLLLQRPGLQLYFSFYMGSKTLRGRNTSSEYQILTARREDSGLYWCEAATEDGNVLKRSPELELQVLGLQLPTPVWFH
Description for human FcγRIa: as §1, §2

B1: antibody containing VH3-IgG2-F890 for the heavy chain and L(WT)-CK for the light chain (antibody)
heavy: QVQLQESGPGLVKPSETLSLTCAVSGHSISHDHAWSWVRQPPGEGLEWIGFISYSGITNYNPSLQGRVTISRDNSKNTLYLQMNSLRAEDTAVYYCARSLARTTAMDYWGEGTLVTVSSASTKGPSVFPLAPCSRSTSESTAALGCLVKDYFPEPVTVSWNSGALTSGVHTFPAVLQSSGLYSLSSVVTVPSSNFGTQTYTCNVDHKPSNTKVDKTVERKCCVECPPCPAPPVAGPSVFLFPPKPKDTLYISRTPEVTCVVVDVSHEDPEVQFNWYVDGVEVHNAKTKPREEQFNSTFRVVSVLTVVHQDWLNGKEYKCKVSNKGLPAPIEKTISKTKGQPREPQVYTLPPSREEMTKNQVSLTCLVKGFYPSDIAVEWESNGQPENNYKTTPPMLDSDGSFFLYSKLTVDKSRWQQGNVFSCSVMHEALHYHVTQKSLSLSP
light: not shown
notes: VH3-IgG2 with M252Y/N434Y/Y436V (EU numbering)
Turning to B1, the “BINDING AMOUNT (RU)” value with human FcγRIa was 19.7 RU; in test [1] it was 120 RU; in test [2], 204 RU; with human FcγRIIb [3], 31.9 RU; in test [4], 9.3 RU; in test [5], 28.1 RU.

B2: antibody containing VH3-IgG2 for the heavy chain and L(WT)-CK for the light chain (antibody)
heavy: B1 heavy with Y250M, Y432N, V434Y
light: not shown
On to B2, for which the “BINDING AMOUNT (RU)” value with human FcγRIa stood at 38.6 RU; in test [1], 188 RU; in test [2], 266 RU; with human FcγRIIb [3], 55.5 RU; in test [4], 16.3 RU; in test [5], 50.1 RU.

B3: antibody containing VH3-IgG2-F939 for the heavy chain and L(WT)-CK for the light chain (antibody)
heavy: B1 heavy with A234R, S237K
light: not shown
notes: VH3-IgG2 with A235R/S239K/M252Y/N434Y/Y436V (EU numbering)
Turning to B3, the “BINDING AMOUNT (RU)” value was 1.3 RU with human FcγRIa; 1 RU in test [1]; 1 RU in test [2]; 0.4 RU with human FcγRIIb [3]; 0.6 RU in test [4]; 1.1 RU in test [5].

B4: IL6R-PD094/IL6R-L (antibody, human IgG1)
heavy: QVQLQESGPGLVKPSETLSLTCAVSGHSISHDHAWSWVRQPPGEGLEWIGFISYSGITNYNPSLQGRVTISRDNSKNTLYLQMNSLRAEDTAVYYCARSLARTTAMDYWGEGTLVTVSSASTKGPSVFPLAPSSKSTSGGTAALGCLVKDYFPEPVTVSWNSGALTSGVHTFPAVLQSSGLYSLSSVVTVPSSSLGTQTYICNVNHKPSNTKVDKKVEPKSCDKTHTCPPCPAPELLGWDSVFLFPPKPKDTLYISRTPEVTCVVVDVSHEDPEVKFNWYVDGVEVHNAKTKPREEQYNSTYRVVSVLTVLHQDWLNGKEYKCKVSNKALPAPIEKTISKAKGQPREPQVYTLPPSRDELTKNQVSLTCLVKGFYPSDIAVEWESNGQPENNYKTTPPVLDSDGSFFLYSKLTVDKSRWQQGNVFSCSVMHEALHYHYTQKSLSLSP
light: DIQMTQSPSSLSASVGDRVTITCRASQDISSYLNWYQQKPGKAPKLLIYYTSRLHSGVPSRFSGSGSGTDFTFTISSLQPEDIATYYCQQGNTLPYTFGQGTKVEIK
notes: Alterations introduced into IL6R-F11; also called P238D/G237W
With B4, the “RELATIVE BINDING ACTIVITY FOR FcγRIIb” value with human FcγRIIb [6] is 122 relative (IL6R-F652/IL6R-L = 100). Also, the “RELATIVE BINDING ACTIVITY FOR FcγRIIaR” value with human FcγRIIa type R was 593 relative (IL6R-F652/IL6R-L = 100).

B5: IL6R-PD080/IL6R-L (antibody)
heavy: B4 heavy with W239D
light: B4 light
notes: Alterations introduced into IL6R-F11; also called P238D/G237D
As for B5, the “RELATIVE BINDING ACTIVITY FOR FcγRIIb” value in the test with human FcγRIIb [6] is 127 relative (IL6R-F652/IL6R-L = 100). Also, in the test with human FcγRIIa type R, the “RELATIVE BINDING ACTIVITY FOR FcγRIIaR” value is 222 relative (IL6R-F652/IL6R-L = 100).

B6: IL6R-PD079/IL6R-L (antibody, human IgG1)
heavy: B4 heavy with W239A
light: B4 light
notes: Alterations introduced into IL6R-F11; also called P238D/G237A
Turning to B6, the “RELATIVE BINDING ACTIVITY FOR FcγRIIb” value in the test with human FcγRIIb [6] was 101 relative (IL6R-F652/IL6R-L = 100). The “RELATIVE BINDING ACTIVITY FOR FcγRIIaR” value with human FcγRIIa type R is 138 relative (IL6R-F652/IL6R-L = 100).

B7: IL6R-PD095/IL6R-L (antibody, human IgG1)
heavy: B4 heavy with W239Y
light: B4 light
notes: Alterations introduced into IL6R-F11; also called P238D/G237Y
Consider B7, for which the “RELATIVE BINDING ACTIVITY FOR FcγRIIb” value in the test with human FcγRIIb [6] is 124 relative (IL6R-F652/IL6R-L = 100). For the same molecule, the “RELATIVE BINDING ACTIVITY FOR FcγRIIaR” value with human FcγRIIa type R is 543 relative (IL6R-F652/IL6R-L = 100).

B8: IL6R-PD043/IL6R-L (antibody, human IgG1)
heavy: B4 heavy with L236Y, W239G
light: B4 light
notes: Alterations introduced into IL6R-F11; also called P238D/L234Y
For the molecule B8, in the test with human FcγRIIb [6], the “RELATIVE BINDING ACTIVITY FOR FcγRIIb” value was 112 relative (IL6R-F652/IL6R-L = 100). Besides, in the test with human FcγRIIa type R, the “RELATIVE BINDING ACTIVITY FOR FcγRIIaR” value was 175 relative (IL6R-F652/IL6R-L = 100).

B9: IL6R-PD087/IL6R-L (antibody, human IgG1)
heavy: B4 heavy with W239M
light: B4 light
notes: Alterations introduced into IL6R-F11; also called P238D/G237M
For B9, in the test with human FcγRIIb [6], the “RELATIVE BINDING ACTIVITY FOR FcγRIIb” value was 109 relative (IL6R-F652/IL6R-L = 100). Also, the “RELATIVE BINDING ACTIVITY FOR FcγRIIaR” value with human FcγRIIa type R was 196 relative (IL6R-F652/IL6R-L = 100).

B10: IL6R-PD042/IL6R-L (antibody, human IgG1)
heavy: B4 heavy with L236W, W239G
light: B4 light
notes: Alterations introduced into IL6R-F11; also called P238D/L234W
Regarding B10, the “RELATIVE BINDING ACTIVITY FOR FcγRIIb” value in the test with human FcγRIIb [6] was 106 relative (IL6R-F652/IL6R-L = 100). Also, the “RELATIVE BINDING ACTIVITY FOR FcγRIIaR” value with human FcγRIIa type R is 240 relative (IL6R-F652/IL6R-L = 100).

B11: IL6R-PD082/IL6R-L (antibody, human IgG1)
heavy: B4 heavy with W239F
light: B4 light
notes: Alterations introduced into IL6R-F11; also called P238D/G237F
On to B11, for which the “RELATIVE BINDING ACTIVITY FOR FcγRIIb” value with human FcγRIIb [6] was 108 relative (IL6R-F652/IL6R-L = 100). In addition, the “RELATIVE BINDING ACTIVITY FOR FcγRIIaR” value in the test with human FcγRIIa type R was 380 relative (IL6R-F652/IL6R-L = 100).

B12: IL6R-PD081/IL6R-L (antibody, human IgG1)
heavy: B4 heavy with W239E
light: B4 light
notes: Alterations introduced into IL6R-F11; also called P238D/G237E
With B12, the “RELATIVE BINDING ACTIVITY FOR FcγRIIb” value with human FcγRIIb [6] was 101 relative (IL6R-F652/IL6R-L = 100). In addition, in the test with human FcγRIIa type R, the “RELATIVE BINDING ACTIVITY FOR FcγRIIaR” value was 117 relative (IL6R-F652/IL6R-L = 100).

B13: IL6R-PD097/IL6R-L (antibody, human IgG1)
heavy: B4 heavy with W239G, S241D
light: B4 light
notes: Alterations introduced into IL6R-F11; also called P238D/S239D
Consider B13, for which, in the test with human FcγRIIb [6], the “RELATIVE BINDING ACTIVITY FOR FcγRIIb” value is 139 relative (IL6R-F652/IL6R-L = 100). Further, the “RELATIVE BINDING ACTIVITY FOR FcγRIIaR” value with human FcγRIIa type R was 844 relative (IL6R-F652/IL6R-L = 100).

B14: antibody containing VH3-IgG4-F890 for the heavy chain and L(WT)-CK for the light chain (antibody)
heavy: QVQLQESGPGLVKPSETLSLTCAVSGHSISHDHAWSWVRQPPGEGLEWIGFISYSGITNYNPSLQGRVTISRDNSKNTLYLQMNSLRAEDTAVYYCARSLARTTAMDYWGEGTLVTVSSASTKGPSVFPLAPCSRSTSESTAALGCLVKDYFPEPVTVSWNSGALTSGVHTFPAVLQSSGLYSLSSVVTVPSSSLGTKTYTCNVDHKPSNTKVDKRVESKYGPPCPPCPAPEFLGGPSVFLFPPKPKDTLYISRTPEVTCVVVDVSQEDPEVQFNWYVDGVEVHNAKTKPREEQFNSTYRVVSVLTVLHQDWLNGKEYKCKVSNKGLPSSIEKTISKAKGQPREPQVYTLPPSQEEMTKNQVSLTCLVKGFYPSDIAVEWESNGQPENNYKTTPPVLDSDGSFFLYSRLTVDKSRWQEGNVFSCSVMHEALHYHVTQKSLSLSL
light: not shown
notes: VH3-IgG4 with M252Y/N434Y/Y436V (EU numbering)
For the molecule B14, the “BINDING AMOUNT (RU)” value with human FcγRIa was 367 RU; in test [1] it was 92.8 RU; in test [2], 37.5 RU; with human FcγRIIb [3], 71.8 RU; in test [4], 3.4 RU; in test [5], 15.5 RU.

B15: antibody containing VH3-IgG4-F939 for the heavy chain and L(WT)-CK for the light chain (antibody)
heavy: B14 heavy with L234R, S238K
light: not shown
notes: VH3-IgG4 with L235R/S239K/M252Y/N434Y/Y436V (EU numbering)
Consider B15, for which the “BINDING AMOUNT (RU)” value is 1.2 RU with human FcγRIa; -0.2 RU in test [1]; -0.7 RU in test [2]; 0.4 RU in the test with human FcγRIIb [3]; -1.7 RU in test [4]; -0.5 RU in test [5].
